± gives the uncertainty stated by the source.
B1: Apoptosis-associated speck-like protein containing a CARD, residues 114 to 194; numbered along this chain, Q9ULZ3 (parent)
chain: FIDQHRAALIARVTNVEWLLDALYGKVLTDEQYQAVRAEPTNPSKMRKLFSFTPAWNWTCKDLLLQALRESQSYLVEDLER

Variants of: B1
Assay: abundance fitness (aPCA) (normalised: wild type 0, dead -1); higher = more abundant; growth selection in yeast, the domain comes from the species named
Conditions: Homo sapiens
A35K showed an abundance fitness of -0.224 ± 0.14.
A35I showed an abundance fitness of -0.862 ± 0.44.
K61E showed an abundance fitness of -0.337 ± 0.089.
With K61Q the abundance fitness was -0.618 ± 0.12.
In the case of K61P, the abundance fitness is reported as -0.806 ± 0.12.
With K61I the abundance fitness was -0.968 ± 0.23.
K61A showed an abundance fitness of -0.332 ± 0.057.
L19E gave an abundance fitness of -0.882 ± 0.23.
L19G gave an abundance fitness of -0.827 ± 0.081.
With L19I the abundance fitness was -0.122 ± 0.12.
Variant L19Y has an abundance fitness of 0.243 ± 0.21.
Work on L19D yielded an abundance fitness of -0.395 ± 0.097.
For L19N, the abundance fitness was -0.704 ± 0.46.
With S71D the abundance fitness was -0.501 ± 0.15.
A67V showed an abundance fitness of -0.484 ± 0.055.
A67K gave an abundance fitness of -0.446 ± 0.18.
With A67Y the abundance fitness was -0.239 ± 0.13.
Variant A67D has an abundance fitness of -1.02 ± 0.27.
In the case of A67W, the abundance fitness is reported as -0.491 ± 0.099.
C60S gave an abundance fitness of 0.167 ± 0.045.
Work on C60D yielded an abundance fitness of 0.332 ± 0.12.
Variant C60V has an abundance fitness of -0.461 ± 0.059.
For C60G, the abundance fitness was 0.084 ± 0.045.
C60E showed an abundance fitness of 0.285 ± 0.064.
Work on R69H yielded an abundance fitness of -0.517 ± 0.21.
In the case of R69N, the abundance fitness is reported as -0.581 ± 0.16.
In the case of S44A, the abundance fitness is reported as 0.116 ± 0.044.
For S44L, the abundance fitness was 0.031 ± 0.05.
S44P showed an abundance fitness of -0.868 ± 0.14.
W18Y showed an abundance fitness of 0.186 ± 0.093.
Work on W18L yielded an abundance fitness of 0.043 ± 0.048.
W18R gave an abundance fitness of 0.076 ± 0.04.
W18A gave an abundance fitness of 0.248 ± 0.046.
Variant W18G has an abundance fitness of 0.169 ± 0.047.
W18P gave an abundance fitness of 0.174 ± 0.047.
W18Q showed an abundance fitness of 0.174 ± 0.06.
For W18S, the abundance fitness was 0.163 ± 0.045.
With W18C the abundance fitness was 0.029 ± 0.069.
In the case of W18E, the abundance fitness is reported as 0.103 ± 0.083.
In the case of W18K, the abundance fitness is reported as 0.186 ± 0.089.
G25V gave an abundance fitness of -0.779 ± 0.097.
In the case of G25Q, the abundance fitness is reported as -0.41 ± 0.1.
E39R gave an abundance fitness of -0.692 ± 0.075.
For E39A, the abundance fitness was -0.474 ± 0.094.
Q32G showed an abundance fitness of -0.725 ± 0.07.
Variant Q32F has an abundance fitness of -0.829 ± 0.27.
In the case of Q32Y, the abundance fitness is reported as -0.891 ± 0.14.
Variant N42W has an abundance fitness of -0.582 ± 0.076.
Variant N42L has an abundance fitness of -0.337 ± 0.061.
For N42S, the abundance fitness was -0.445 ± 0.061.
N42K gave an abundance fitness of -0.74 ± 0.24.
In the case of L79R, the abundance fitness is reported as -0.751 ± 0.074.
Work on L79T yielded an abundance fitness of -0.848 ± 0.25.
For L79V, the abundance fitness was -0.775 ± 0.15.
L79A gave an abundance fitness of -0.726 ± 0.11.
H5M showed an abundance fitness of -0.145 ± 0.075.
In the case of H5R, the abundance fitness is reported as -0.743 ± 0.062.
H5F gave an abundance fitness of -0.553 ± 0.12.
Work on H5A yielded an abundance fitness of -0.276 ± 0.08.
In the case of H5E, the abundance fitness is reported as -0.441 ± 0.11.
Work on R37H yielded an abundance fitness of -0.252 ± 0.1.
In the case of R37F, the abundance fitness is reported as -0.509 ± 0.15.
With R37C the abundance fitness was -0.208 ± 0.088.
Variant R37D has an abundance fitness of -0.219 ± 0.074.
V76I showed an abundance fitness of -0.056 ± 0.092.
V76P gave an abundance fitness of -0.632 ± 0.1.
Work on V76K yielded an abundance fitness of -0.598 ± 0.17.
L20D gave an abundance fitness of -0.518 ± 0.12.
L20P showed an abundance fitness of -0.543 ± 0.11.
For L20G, the abundance fitness was -0.901 ± 0.093.
In the case of K26A, the abundance fitness is reported as -0.371 ± 0.078.
K26M showed an abundance fitness of -0.563 ± 0.11.
With K26P the abundance fitness was -0.369 ± 0.065.
K26S showed an abundance fitness of -0.081 ± 0.051.
Variant K26F has an abundance fitness of -0.47 ± 0.3.
Variant K26W has an abundance fitness of -0.481 ± 0.044.
For K26Q, the abundance fitness was -0.249 ± 0.07.
In the case of K26R, the abundance fitness is reported as -0.178 ± 0.038.
For A11R, the abundance fitness was -0.038 ± 0.45.
D78G showed an abundance fitness of -0.228 ± 0.058.
With D78H the abundance fitness was -0.034 ± 0.12.
For D78T, the abundance fitness was -0.34 ± 0.083.
Variant D78E has an abundance fitness of -0.045 ± 0.094.
For V36A, the abundance fitness was -0.46 ± 0.08.
Variant V36G has an abundance fitness of -0.691 ± 0.08.
V36N showed an abundance fitness of -0.823 ± 0.46.
In the case of V36Y, the abundance fitness is reported as -0.973 ± 0.25.
In the case of V36P, the abundance fitness is reported as -0.89 ± 0.19.
P40C showed an abundance fitness of -0.434 ± 0.096.
With P40R the abundance fitness was -0.167 ± 0.041.
Work on P40N yielded an abundance fitness of -0.419 ± 0.18.
P40W showed an abundance fitness of -0.832 ± 0.12.
Variant F52P has an abundance fitness of -0.979 ± 0.19.
F52Y showed an abundance fitness of -0.105 ± 0.085.
Variant F52D has an abundance fitness of -0.996 ± 0.21.
Work on F52W yielded an abundance fitness of -0.696 ± 0.087.
Q4F gave an abundance fitness of -0.34 ± 0.23.
In the case of Q4H, the abundance fitness is reported as -0.315 ± 0.14.
In the case of Q4D, the abundance fitness is reported as -0.432 ± 0.24.
For Q4C, the abundance fitness was -0.43 ± 0.14.
With P43R the abundance fitness was -0.091 ± 0.039.
For P43I, the abundance fitness was -0.566 ± 0.19.
Variant P43F has an abundance fitness of -0.395 ± 0.15.
A38M showed an abundance fitness of -0.11 ± 0.071.
For A38S, the abundance fitness was -0.056 ± 0.051.
Variant A38H has an abundance fitness of -0.226 ± 0.14.
In the case of Q72I, the abundance fitness is reported as -0.977 ± 0.43.
Q72S showed an abundance fitness of -0.216 ± 0.059.
In the case of A8N, the abundance fitness is reported as -0.558 ± 0.39.
A8W showed an abundance fitness of -0.776 ± 0.11.
Variant A8E has an abundance fitness of 0.2 ± 0.072.
For A8M, the abundance fitness was -0.372 ± 0.12.
Work on A8I yielded an abundance fitness of -0.225 ± 0.2.
In the case of E17G, the abundance fitness is reported as -0.357 ± 0.044.
Variant E17T has an abundance fitness of -0.267 ± 0.066.
E17N gave an abundance fitness of -0.286 ± 0.17.
With E70L the abundance fitness was -0.467 ± 0.074.
Work on E70K yielded an abundance fitness of -0.116 ± 0.17.
For E70I, the abundance fitness was -0.468 ± 0.18.
Variant V16W has an abundance fitness of -0.533 ± 0.084.
V16F showed an abundance fitness of -0.941 ± 0.26.
With V16E the abundance fitness was -0.928 ± 0.17.
For V16Y, the abundance fitness was -1.02 ± 0.42.
V16G showed an abundance fitness of -0.88 ± 0.087.
Variant K45T has an abundance fitness of -0.764 ± 0.13.
Work on K45W yielded an abundance fitness of -0.852 ± 0.24.
Work on K45E yielded an abundance fitness of -0.846 ± 0.19.
In the case of K45R, the abundance fitness is reported as -0.317 ± 0.053.
Variant K48V has an abundance fitness of -0.469 ± 0.063.
K48C gave an abundance fitness of -0.667 ± 0.14.
With K48S the abundance fitness was -0.891 ± 0.12.
With K48P the abundance fitness was -0.71 ± 0.11.
K48T gave an abundance fitness of -0.635 ± 0.12.
D3K showed an abundance fitness of -0.825 ± 0.44.
In the case of D3H, the abundance fitness is reported as -0.616 ± 0.16.
D3I gave an abundance fitness of -0.796 ± 0.27.
Work on D3E yielded an abundance fitness of -0.387 ± 0.097.
Work on D3S yielded an abundance fitness of -0.592 ± 0.11.
D3F gave an abundance fitness of -0.749 ± 0.38.
For F1E, the abundance fitness was -0.745 ± 0.27.
In the case of F1H, the abundance fitness is reported as -0.375 ± 0.41.
With F1G the abundance fitness was -0.968 ± 0.25.
Work on L23D yielded an abundance fitness of -0.962 ± 0.22.
L23Y gave an abundance fitness of -0.586 ± 0.31.
With L23F the abundance fitness was -0.737 ± 0.24.
With L23M the abundance fitness was -0.392 ± 0.085.
Y74P showed an abundance fitness of -0.081 ± 0.065.
In the case of Y74M, the abundance fitness is reported as -0.103 ± 0.072.
With Y74K the abundance fitness was 0.221 ± 0.098.
Work on W56T yielded an abundance fitness of -0.74 ± 0.088.
For W56F, the abundance fitness was -0.506 ± 0.24.
Work on W56N yielded an abundance fitness of -0.83 ± 0.25.
Variant W56K has an abundance fitness of -0.684 ± 0.22.
In the case of W56C, the abundance fitness is reported as -0.957 ± 0.5.
W56S showed an abundance fitness of -0.813 ± 0.095.
For L49D, the abundance fitness was -0.914 ± 0.23.
For L49M, the abundance fitness was -0.888 ± 0.16.
For L49I, the abundance fitness was -0.444 ± 0.17.
With L49N the abundance fitness was -0.209 ± 0.14.
Work on L68S yielded an abundance fitness of -0.838 ± 0.16.
L68D gave an abundance fitness of -1.01 ± 0.43.
Work on L68W yielded an abundance fitness of -1.18 ± 0.26.
With T53P the abundance fitness was -1.03 ± 0.22.
For T53G, the abundance fitness was -0.663 ± 0.058.
T53D showed an abundance fitness of -0.855 ± 0.21.
T53Y showed an abundance fitness of 0.11 ± 0.11.
T53L showed an abundance fitness of 0.071 ± 0.056.
